T1: human IL-10 receptor (hIL-10R alpha and beta chains) on HEK-Blue IL-10 reporter cells (human, UniProt Q13651 22-578; Q08334 20-325)
T1 sequence 1: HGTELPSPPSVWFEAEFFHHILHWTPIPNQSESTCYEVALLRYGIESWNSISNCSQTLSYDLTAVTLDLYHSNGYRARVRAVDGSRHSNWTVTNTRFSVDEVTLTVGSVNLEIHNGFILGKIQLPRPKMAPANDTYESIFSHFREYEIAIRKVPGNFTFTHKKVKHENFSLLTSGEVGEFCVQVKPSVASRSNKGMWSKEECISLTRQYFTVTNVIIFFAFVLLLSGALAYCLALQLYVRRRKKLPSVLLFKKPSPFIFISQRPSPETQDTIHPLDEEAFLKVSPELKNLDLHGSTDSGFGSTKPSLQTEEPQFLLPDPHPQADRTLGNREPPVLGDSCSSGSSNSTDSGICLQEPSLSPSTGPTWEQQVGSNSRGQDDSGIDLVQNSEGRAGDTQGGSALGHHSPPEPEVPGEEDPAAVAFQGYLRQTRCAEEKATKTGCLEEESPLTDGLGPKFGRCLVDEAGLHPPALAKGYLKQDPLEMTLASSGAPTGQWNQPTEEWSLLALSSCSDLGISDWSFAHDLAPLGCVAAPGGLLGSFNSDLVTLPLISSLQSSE
T1 sequence 2: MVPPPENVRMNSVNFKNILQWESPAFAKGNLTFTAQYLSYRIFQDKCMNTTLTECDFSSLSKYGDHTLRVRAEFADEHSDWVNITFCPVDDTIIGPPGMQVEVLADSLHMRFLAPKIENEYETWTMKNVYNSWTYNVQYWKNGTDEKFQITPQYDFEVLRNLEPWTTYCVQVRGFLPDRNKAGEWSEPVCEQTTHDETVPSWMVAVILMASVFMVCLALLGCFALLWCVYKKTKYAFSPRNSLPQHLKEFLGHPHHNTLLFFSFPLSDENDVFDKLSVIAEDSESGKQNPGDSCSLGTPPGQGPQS


Molecular target: T1, human IL-10 receptor (hIL-10R alpha and …)
Test: cell-based or functional assay

Abs 630 (25 nM)	Abs 630 (100 nM)	Binder
0.45 Abs 630	0.38 Abs 630	IL10R binding molecule of SEQ ID NO: 317 (bispecific antibody) QVQLQESGGGSVQAGGSLRLSCAASGYTYSSYCMGWFRQAPGKEREGVAHIDSDGSTSYADSVKGRFTISKDNAKNTLYLQMNSLKPEDTAMYYCAADPIPGPGYCDGGPNKYWGQGTQVTVSSGGGSQVQLQESGGGSVQAGGSLRLSCGASGYTYSSYCMGWFRQVPGKEREGVAVIDSDGSTSYADSVKGRFTISKDNGKNTLYLQMNSLKPEDTAMYYCAADLGHYRPPCGVLYLGMDYWGKGTQVTVSSASHHHHHH
0.52 Abs 630	0.54 Abs 630	IL10R binding molecule of SEQ ID NO: 327 (bispecific antibody) QVQLQESGGGSVQAGGSLRLSCTVSRYTASVNYMGWFRQAPGKEREGVATIFTGAGTTYYANSVKGRFTISRDNAKNTAYLQMNSLKPEDTAIYYCAVDFRGGLLYRPAYEYTYRGQGTQVTVSSGGGSQVQLQESGGGSVQAGGSLRLSCAASRFTYSSYCMGWFRQAPGKEREGVASIDSDGSTSYTDSVKGRFTISKDNAKNTLYLQMNSLKPEDTAMYYCALDLMSTVVPGFCGFLLSAGMDYWGKGTQVTVSSASHHHHHH
0.46 Abs 630	0.41 Abs 630	IL10R binding molecule of SEQ ID NO: 322 (bispecific antibody) QVQLQESGGGSVQAGGSLRLSCAASRYTYNSYCMGWFRQAPGKEREGVATIDSDGMTRYADSVKGRFTISKDNAKNTLYLQMNSLKPEDTAMYYCAADADCTIAAMTTNPLGQGTQVTVSSGGGSQVQLQESGGGSVQAGGSLRLSCAVSGYAYSTYCMGWFRQAPGKEREGVAAIDSGGSTSYADSVKGRFTISKDNAKNTLYLRMNSLKPEDTAMYYCAAVPPPPDGGSCLFLGPEIKVSKADFRYWGQGTQVTVSSASHHHHHH
0.54 Abs 630	0.41 Abs 630	IL10R binding molecule of SEQ ID NO: 320 (bispecific antibody) QVQLQESGGGSVQAGGSLRLSCAASRYTYNSYCMGWFRQAPGKEREGVATIDSDGMTRYADSVKGRFTISKDNAKNTLYLQMNSLKPEDTAMYYCAADADCTIAAMTTNPLGQGTQVTVSSGGGSQVQLQESGGGSVQAGGSLRLSCAASRFTYSSYCMGWFRQAPGKEREGVASIDSDGSTSYTDSVKGRFTISKDNAKNTLYLQMNSLKPEDTAMYYCALDLMSTVVPGFCGFLLSAGMDYWGKGTQVTVSSASHHHHHH
0.46 Abs 630	0.4 Abs 630	IL10R binding molecule of SEQ ID NO: 321 (bispecific antibody) QVQLQESGGGSVQAGGSLRLSCAASRYTYNSYCMGWFRQAPGKEREGVATIDSDGMTRYADSVKGRFTISKDNAKNTLYLQMNSLKPEDTAMYYCAADADCTIAAMTTNPLGQGTQVTVSSGGGSQVQLQESGGGSVQAGGSLRLSCAASGYTYSMYCMGWFRQAPGKEREGVAQINSDGSTSYADSVKGRFTISKDNAKNTLYLQMNSLKPEDTAMYYCAADSRVYGGSWYERLCGPYTYEYNYWGQGTQVTVSSASHHHHHH
0.5 Abs 630	0.45 Abs 630	IL10R binding molecule of SEQ ID NO: 318 (bispecific antibody) QVQLQESGGGSVQAGGSLRLSCAASGYTYSSYCMGWFRQAPGKEREGVAHIDSDGSTSYADSVKGRFTISKDNAKNTLYLQMNSLKPEDTAMYYCAADPIPGPGYCDGGPNKYWGQGTQVTVSSGGGSQVQLQESGGGSVQAGGSLRLSCAASGYSNCSYDMTWYRQAPGKEREFVSAIHSDGSTRYADSVKGRFFISQDNAKNTVYLQMNSLKPEDTAMYYCKTDPLHCRAHGGSWYSVRANYWGQGTQVTVSSASHHHHHH
0.49 Abs 630	0.42 Abs 630	IL10R binding molecule of SEQ ID NO: 325 (bispecific antibody) QVQLQESGGGSVQAGGSLRLSCAASRYTYNSYCMGWFRQAPGKEREGVATIDSDGMTRYADSVKGRFTISKDNAKNTLYLQMNSLKPEDTAMYYCAADADCTIAAMTTNPLGQGTQVTVSSGGGSQVQLQESGGGSVQAGGSLRLSCAASGYSNCSYDMTWYRQAPGKEREFVSAIHSDGSTRYADSVKGRFFISQDNAKNTVYLQMNSLKPEDTAMYYCKTDPLHCRAHGGSWYSVRANYWGQGTQVTVSSASHHHHHH
0.44 Abs 630	0.34 Abs 630	IL10R binding molecule of SEQ ID NO: 328 (bispecific antibody) QVQLQESGGGSVQAGGSLRLSCTVSRYTASVNYMGWFRQAPGKEREGVATIFTGAGTTYYANSVKGRFTISRDNAKNTAYLQMNSLKPEDTAIYYCAVDFRGGLLYRPAYEYTYRGQGTQVTVSSGGGSQVQLQESGGGSVQAGGSLRLSCAASGYTYSMYCMGWFRQAPGKEREGVAQINSDGSTSYADSVKGRFTISKDNAKNTLYLQMNSLKPEDTAMYYCAADSRVYGGSWYERLCGPYTYEYNYWGQGTQVTVSSASHHHHHH
0.44 Abs 630	0.34 Abs 630	IL10R binding molecule of SEQ ID NO: 261 (bispecific antibody) QVQLQESGGGSVQAGGSLRLSCAASRYLYSIDYMAWFRQSPGKEREPVAVIYTASGATFYPDSVKGRFTISQDNAKMTVYLQMNSLKSEDTAMYYCAAVRKTDSYLFDAQSFTYWGQGTQVTVSSGGGSQVQLQESGGGSVQAGGSLRLSCAASGYSYSSYCMGWFRQAPGKEREGVATIDSDGMTRYADSVKGRFTISKDNAKNTLYLQMNSLKPEDTAMYYCAAPLYDCDSGAVGRNPPYWGQGTQVTVSSASHHHHHH
0.61 Abs 630	0.44 Abs 630	IL10R binding molecule of SEQ ID NO: 324 (bispecific antibody) QVQLQESGGGSVQAGGSLRLSCAASRYTYNSYCMGWFRQAPGKEREGVATIDSDGMTRYADSVKGRFTISKDNAKNTLYLQMNSLKPEDTAMYYCAADADCTIAAMTTNPLGQGTQVTVSSGGGSQVQLQESGGGSVQAGGSLRLSCGASGYTYSSYCMGWFRQVPGKEREGVAVIDSDGSTSYADSVKGRFTISKDNGKNTLYLQMNSLKPEDTAMYYCAADLGHYRPPCGVLYLGMDYWGKGTQVTVSSASHHHHHH
0.64 Abs 630	0.38 Abs 630	IL10R binding molecule of SEQ ID NO: 323 (bispecific antibody) QVQLQESGGGSVQAGGSLRLSCAASRYTYNSYCMGWFRQAPGKEREGVATIDSDGMTRYADSVKGRFTISKDNAKNTLYLQMNSLKPEDTAMYYCAADADCTIAAMTTNPLGQGTQVTVSSGGGSQVQLQESGGGSVQAGGSLRLSCTVSGYTYSSNCMGWFRQAPGKEREGVATIYTGGGNTYYADSVKGRFTISQDNAKNTVYLQMNNLKPEDTAMYYCAAEPLSRVYGGSCPTPTFDYWGQGTQVTVSSASHHHHHH
0.47 Abs 630	0.36 Abs 630	IL10R binding molecule of SEQ ID NO: 319 (bispecific antibody) QVQLQESGGGSVQAGGSLRLSCAASRYTYNSYCMGWFRQAPGKEREGVATIDSDGMTRYADSVKGRFTISKDNAKNTLYLQMNSLKPEDTAMYYCAADADCTIAAMTTNPLGQGTQVTVSSGGGSQVQLQESGGGSVQAGGSLRLSCAASRYLYSIDYMAWFRQSPGKEREPVAVIYTASGATFYPDSVKGRFTISQDNAKMTVYLQMNSLKSEDTAMYYCAAVRKTDSYLFDAQSFTYWGQGTQVTVSSASHHHHHH
0.47 Abs 630	0.56 Abs 630	IL10R binding molecule of SEQ ID NO: 326 (bispecific antibody) QVQLQESGGGSVQAGGSLRLSCTVSRYTASVNYMGWFRQAPGKEREGVATIFTGAGTTYYANSVKGRFTISRDNAKNTAYLQMNSLKPEDTAIYYCAVDFRGGLLYRPAYEYTYRGQGTQVTVSSGGGSQVQLQESGGGSVQAGGSLRLSCAASRYLYSIDYMAWFRQSPGKEREPVAVIYTASGATFYPDSVKGRFTISQDNAKMTVYLQMNSLKSEDTAMYYCAAVRKTDSYLFDAQSFTYWGQGTQVTVSSASHHHHHH
